Source: patent publication US8623997B2, “Variant Hhip1 protein and methods and uses thereof” (Curis, Inc., priority 2008, dated 2014)
Bridge positions count the residues as written; N and C are the ends. Ends that are not written are not given here.

How the values were obtained:
Shh = target: T1, Shh (Homo sapiens, UniProt Q15465); experiment: NMR HSQC spectroscopy of labeled Shh with L2 loop peptides; assay type: binding; details: peptide 2 mM, 90 μM ^15N-Shh
T1 construct: yielding Shh (residues 29-197) lacking the His6-Tag; His6 (N, cleaved yes); made in house; host or cells: E. coli Rosetta 2, minimal/M9 medium with 15NH4Cl
From the text: Shh is in the same orientation as in the Hhip-Shh complex in Panel A. Zn^2+ and Ca^2+ cations are shown. […] Surface representation of Shh with residues within 4.5 Å of Hhip (shaded gray) and Cdon (hatched areas). Area within dotted boarder indicates the boundaries of the Cdon footprint, which overlaps the Hhip binding surface. […] Shh histidine residues are shown as sticks with nitrogen atoms shaded dark. The Hhip L2 loop is shown in transparent surface and Zn^2+ cation is shown. Histidine 35 is not shown since the ordered portion of the Shh structure begins at L40. […] The spectral region of the histidine side chains is shown. […] The average mean Shh649 fluorescence intensity (MFI) of two independent dilution series was plotted versus protein concentration, with error bars denoting standard deviations. Ctrl refers to the His-6 (SEQ ID NO: 87) tagged HGF β protein. […] Shh649 (0.33 nM) was preincubated with 56 nM (170-fold excess) of Hhipβ12 wildtype or L2 mutant proteins, 5E1 or controls then bound to Ptch1 cells (black) or 293 cells (gray), washed and analyzed by FACS. Shh649 binding to Ptch1 cells in the absence of inhibitors was normalized to 100% and the data expressed as a percentage of this signal (average of two independent duplicates with standard deviations). Ctrl and CtrlFc refer to HGF β and the IgG1 isotype control Trastuzumab, respectively. […]

Shh-Flag = target: T2, Shh-Flag (Homo sapiens, UniProt Q15465); experiment: Peptide competition ELISA for Hhip binding to Shh-Flag
T2 construct: Shh-Flag (residues 25-197 with C-terminal Flag-Tag); His6 (N); made in house; host or cells: Shh-Flag: E. coli Rosetta 2; Hhip: Tni insect cells
Protocol: In a competition assay, a peptide derived from the Hhip1β12 L2 loop competed with Hipβ1 for Shh binding. Briefly, 96-well Nunc-Immuno MaxiSorp plates (Nalge Nunc International) were coated with 100 μl of anti-Flag M2 antibody (Sigma) at 5 μg/ml in 50 mM sodium carbonate buffer pH 9.6 at 4° C. overnight. Plates were blocked and washed as described for Shh competition ELISA followed by incubation with 100 μL of Shh-Flag at 50 μg/ml for 1 h. After plate washing a serial dilution of Hip-L2 peptide ([…]) (SEQ ID NO:46) starting at 1.2 mM (1:3 dilution) containing 800 nM Hhip1β12 in a final volume of 100 μL was added to the wells to compete for binding to Shh-Flag. After incubation for 1 hr, wells were washed and incubated with anti-His-HRP conjugate (Qiagen, 1:2000 dilution) in blocking buffer. Plate was developed and the data were fit to a 4-parameter equation and the IC50 calculated as described above; assays were carried out in triplicate.

T2 sequence (Q15465 25-197): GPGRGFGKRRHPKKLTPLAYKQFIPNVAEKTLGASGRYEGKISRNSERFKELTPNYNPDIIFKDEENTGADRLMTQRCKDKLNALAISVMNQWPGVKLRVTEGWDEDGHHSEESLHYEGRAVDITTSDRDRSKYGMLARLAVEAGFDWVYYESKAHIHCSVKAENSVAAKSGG
T1 sequence (Q15465 29-197): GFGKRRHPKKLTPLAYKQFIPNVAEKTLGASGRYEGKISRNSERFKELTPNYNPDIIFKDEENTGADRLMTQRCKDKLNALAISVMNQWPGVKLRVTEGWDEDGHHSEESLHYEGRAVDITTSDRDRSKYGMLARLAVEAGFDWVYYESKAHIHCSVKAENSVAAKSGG

With “GCQLTKQRLVDADGIINPCG (disulfide 2-19 (inferred); listed as Homo sapiens) [Ptch L2 peptide]” the “binding to Shh by ^15N, ^1H HSQC (in words)” value (Shh) was “binds Shh in a manner similar to that of the Hhip1β12 L2 peptide” and the “competition with Hipβ1 for Shh binding (in words)” value (Shh-Flag) was “unable to compete with Hipβ1 for Shh binding”.
